Data on four substances can be found in patent US20140241987A1.

The term Kd denotes the constant that tells how readily two partners part at equilibrium. Read a low Kd as tighter binding. Usually koff stands for the rate constant with which the complex falls apart. A high value points to fast dissociation. In general, kon refers to the rate constant with which the complex forms. A higher kon goes with faster complex formation.

In test [1] the target is α-synuclein fibrils (human) (UniProt P37840). The experiment in a line: inhibition ELISA, fibrils against monomers. (In general: In an ELISA, binding on a coated surface is turned into a signal by an enzyme label.)
For test [2] the target is unchanged. The experiment in a line: SPR, BIAcore X100, fibrils immobilised on CM5, mAb injected. For orientation: Surface plasmon resonance follows binding to a sensor surface in real time, without labels.

For the substance Syn-O1 (antibody), the Fold Affinity to Fibrils in test [1] came to 12700 fold. Moreover, in test [2], the dissociation constant (Kd) came out at 0.016 nM, the koff stood at 9.36e-05 s⁻¹ and the kon was found to be 5.86e+06 M⁻¹ s⁻¹.
In turn, Syn-O2 (antibody) came in with a Fold Affinity to Fibrils in test [1] of 27300 fold. Further, in test [2], the Kd was 0.0969 nM, the off-rate constant (koff) was found to be 0.00127 s⁻¹ and the on-rate (kon) is 1.31e+07 M⁻¹ s⁻¹.
The substance Syn-O3 (antibody) came in with a Fold Affinity to Fibrils in test [1] of 11100 fold. Further, in test [2], the Kd amounted to 0.171 nM, the koff was 0.000379 s⁻¹ and the on-rate (kon) came out at 2.22e+06 M⁻¹ s⁻¹.
In the case of Syn-O4 (antibody), the Fold Affinity to Fibrils in test [1] worked out at 6930 fold. In test [2], this substance registered a Kd of 0.138 nM, a koff of 0.000996 s⁻¹ and a kon of 7.24e+06 M⁻¹ s⁻¹.
